Values of other authors as cited in PMC9696605.
pKd: −log10 of the molar value.

Biological target: Fyn SH3 (Homo sapiens) (UniProt P06241)
Sequence (P06241 79-146): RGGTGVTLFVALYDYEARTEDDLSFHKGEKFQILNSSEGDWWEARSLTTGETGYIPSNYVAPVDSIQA

Chain of MBP (P02686 whole entry): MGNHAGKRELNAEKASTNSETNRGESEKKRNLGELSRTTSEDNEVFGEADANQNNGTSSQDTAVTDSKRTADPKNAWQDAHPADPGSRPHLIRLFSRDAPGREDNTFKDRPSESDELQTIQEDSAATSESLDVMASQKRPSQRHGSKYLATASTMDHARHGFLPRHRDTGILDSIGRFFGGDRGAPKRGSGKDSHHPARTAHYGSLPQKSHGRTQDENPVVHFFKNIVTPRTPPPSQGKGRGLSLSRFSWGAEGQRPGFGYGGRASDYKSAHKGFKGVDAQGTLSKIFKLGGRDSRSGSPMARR

## MBP (from UniProt P02686)
  pKd: 5.22
